The source of these data is the RNAGym collection of RNA variant scans (doi:10.1093/nar/gkz1192).

First the molecules themselves.
B1: CPEB3 Ribozyme (parent)
chain: UAACAGGGGGCCACAGCAGAAGCGUUCACGUCGCAGCCCCUGUCAGAUUCUGGUGAAUCUGCGAAUUCUGCUGUAUAUCUC

In the data set the parent is B1. Put plainly: self-cleavage, relative activity (ratio to wild type); higher = more cleavage; in vitro, sequencing. An outline of the steps: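 Libraries of CPEB3 self-cleaving ribozyme mutants came from rounds of error-prone PCR and carried barcodes, which DNA sequencing matched to variants. In vitro transcription used T7 RNA polymerase at 37°C for 5 hours, with a further 15 min in DNase I before EDTA stopped the reaction; the ribozymes cleaved during both steps. The RNA was reverse transcribed with template switching and sequenced on Illumina. Relative activity is the cleaved/total read fraction of a variant divided by that of the unmutated ribozyme, averaged over three batches with at least 5 reads.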
Take C32G U41G: the self-cleavage came out at 0.11.

Consider U51C U80C, for which the self-cleavage turned out to be 1.15.

U49A A57G: the self-cleavage stood at 0.5.

Take A35U A75U: the self-cleavage is 0.56.

With G7U U80C, the self-cleavage is 0.27.

As for G52A U54A, the self-cleavage stood at 1.16.

For C17G U60G, the self-cleavage is 0.25.

As for A45U U49A, the self-cleavage turned out to be 0.17.

In the case of C11G A75G, the self-cleavage came to 0.41.

Take A18U C32G: the self-cleavage is 0.17.

As for A45G C79G, the self-cleavage was found to be 1.12.

Regarding A20U A45U, the self-cleavage is 0.14.

Consider A2G C4U, for which the self-cleavage came out at 1.09.

As for A13C C71U, the self-cleavage is 0.33.

Turning to A20G A21U, the self-cleavage is 0.26.

Take G7U A20U: the self-cleavage stood at 0.11.

For A5G A18C, the self-cleavage was found to be 0.48.

Take G52C A77G: the self-cleavage was determined as 1.16.

Regarding U31C U43C, the self-cleavage amounted to 0.49.

In the case of C32U U60C, the self-cleavage came to 0.18.

For the variant C62U A64G, the self-cleavage was 0.19.

As for U31G U58C, the self-cleavage turned out to be 0.4.

On to G16A A45G, for which the self-cleavage was 0.45.

Take C39U U76C: the self-cleavage worked out at 1.08.

A3U A64U: the self-cleavage is 0.69.

On to A56C U72C, for which the self-cleavage came out at 0.52.

For A15C C59U, the self-cleavage amounted to 0.85.

Regarding G42A U51C, the self-cleavage is 0.29.

Regarding U25G U51C, the self-cleavage turned out to be 0.4.

Take A28C U41C: the self-cleavage stood at 0.28.

For G33C A77G, the self-cleavage was found to be 0.11.

For the variant G9U A15C, the self-cleavage is 0.36.

As for U60A U74G, the self-cleavage was found to be 0.91.

For U26G A45C, the self-cleavage amounted to 0.09.

Regarding G33U U41C, the self-cleavage worked out at 0.25.

Turning to C29U A77G, the self-cleavage was determined as 0.61.

As for C27A C44G, the self-cleavage worked out at 0.07.

In the case of A45U, the self-cleavage amounted to 0.51.

With U48C U58G, the self-cleavage is 0.25.

For the variant C39U U51A, the self-cleavage was 1.06.

As to C38U U74C, the self-cleavage was determined as 1.26.

As to C62A, the self-cleavage amounted to 0.31.

In the case of C62G, the self-cleavage was found to be 0.3.

A13G C81A: the self-cleavage was 1.23.

On to G46U U72A, for which the self-cleavage stood at 0.37.

For U25C C39A, the self-cleavage turned out to be 0.23.

Regarding U48A A65G, the self-cleavage amounted to 0.4.

Turning to G16A U67C, the self-cleavage came out at 0.11.

Turning to G61U U72C, the self-cleavage was found to be 0.72.

Regarding G24A U80C, the self-cleavage was found to be 0.59.

Turning to G33A A77U, the self-cleavage came out at 0.23.

Regarding G7A U67A, the self-cleavage turned out to be 0.17.

Take A18G A56G: the self-cleavage came to 0.55.

With A15U G73U, the self-cleavage was 1.17.

As to U48C C71A, the self-cleavage is 0.49.

Regarding G30C U54A, the self-cleavage was found to be 0.22.

In the case of A47U U76C, the self-cleavage came out at 0.59.

As for G6U A18U, the self-cleavage stood at 0.12.

Turning to A21C A64C, the self-cleavage turned out to be 0.17.

Consider U51A G52A, for which the self-cleavage is 1.21.

For the variant A47C G73A, the self-cleavage stood at 0.85.

Consider U48A C79G, for which the self-cleavage was 0.73.

On to U41A C71G, for which the self-cleavage is 0.1.

Consider A18U U72C, for which the self-cleavage was determined as 0.42.

Consider U31A C81U, for which the self-cleavage came to 0.58.

As to C32G C44U, the self-cleavage was 0.12.

For the variant U69C G70C, the self-cleavage worked out at 0.22.

On to U26C C71A, for which the self-cleavage was found to be 0.1.

With C14G U51C, the self-cleavage is 1.16.

For G7A U43A, the self-cleavage worked out at 0.32.

A13U U58G: the self-cleavage worked out at 0.3.

Consider U1G A56G, for which the self-cleavage came out at 0.92.

Turning to U48G A57G, the self-cleavage stood at 0.4.

With C23U U60A, the self-cleavage was determined as 0.26.

Regarding U1A G73U, the self-cleavage amounted to 1.44.

On to U26G U41A, for which the self-cleavage stood at 0.28.

As for G8C U60A, the self-cleavage is 0.14.

Take A18U A21G: the self-cleavage was 0.25.

In the case of A21U A57G, the self-cleavage turned out to be 0.33.

With C27U U80C, the self-cleavage is 0.58.

On to U67A U80A, for which the self-cleavage came out at 0.58.

For A28G U49C, the self-cleavage came to 0.22.

For C23U A45U, the self-cleavage was determined as 0.27.

As to U58C G63C, the self-cleavage worked out at 0.54.

For the variant A13G G73C, the self-cleavage was found to be 1.12.

Regarding A13U A35C, the self-cleavage is 0.69.

On to G7U A15G, for which the self-cleavage was found to be 0.27.

As to A5G G24U, the self-cleavage worked out at 0.24.

Regarding C23A U78G, the self-cleavage was 0.08.

As for A64U A75C, the self-cleavage was 0.5.

Consider A45C A77U, for which the self-cleavage was 0.39.

For C17A G53A, the self-cleavage amounted to 0.68.

For G10A A13G, the self-cleavage is 0.26.

For G10A A13U, the self-cleavage is 0.28.

As to U31A U48C, the self-cleavage was 0.29.

Turning to G30A A64G, the self-cleavage is 0.43.

Regarding G6A U54G, the self-cleavage was 0.19.

With A18G C71A, the self-cleavage came out at 0.29.

Consider A28U U72C, for which the self-cleavage was determined as 0.88.

For the variant A18C A45C, the self-cleavage turned out to be 0.21.

A57C U78A: the self-cleavage turned out to be 0.4.

Regarding U49C C81U, the self-cleavage came to 0.68.

Turning to G30C U78G, the self-cleavage came to 0.2.

Regarding C37G U67A, the self-cleavage came to 0.48.

As to U74G A75U, the self-cleavage was found to be 1.29.

For A15U U67C, the self-cleavage came out at 0.22.

As to C32A U49C, the self-cleavage came out at 0.15.

For the variant A5U A56C, the self-cleavage amounted to 0.91.

Turning to A5U A56G, the self-cleavage stood at 0.81.

Turning to C27U U72C, the self-cleavage amounted to 0.24.

With U31C U80C, the self-cleavage turned out to be 0.96.

With A35G U48A, the self-cleavage stood at 1.14.

On to A21G U26A, for which the self-cleavage is 0.52.

In the case of G6U U51C, the self-cleavage was found to be 0.36.

Take A3G U31A: the self-cleavage worked out at 0.61.

For C11U U78A, the self-cleavage was determined as 0.53.

C14U C38A: the self-cleavage stood at 0.14.

Consider C29U A64C, for which the self-cleavage stood at 0.24.

As to A45U G73A, the self-cleavage is 1.23.

Regarding G24A U66A, the self-cleavage was 0.3.

C17U A77G: the self-cleavage was 0.69.

For G30C A75G, the self-cleavage is 0.12.

In the case of U1A U25A, the self-cleavage stood at 0.34.

As to U43C A77G, the self-cleavage worked out at 0.58.

On to U25A G52C, for which the self-cleavage is 0.27.

Take A13G C44A: the self-cleavage turned out to be 0.24.

Regarding G10A U41G, the self-cleavage was found to be 0.38.

As for G16C U76C, the self-cleavage stood at 0.41.

With A65C A77G, the self-cleavage amounted to 0.19.

As for G46C U76A, the self-cleavage turned out to be 0.22.

Turning to U26G C79A, the self-cleavage turned out to be 0.19.

In the case of G10C U54A, the self-cleavage came out at 0.26.

For U49A U58C, the self-cleavage was determined as 0.33.

For the variant G19U U58G, the self-cleavage came out at 0.12.

As for U26C G55A, the self-cleavage is 0.43.

Consider C34U U78C, for which the self-cleavage was determined as 0.3.

Turning to C4G U31C, the self-cleavage came to 1.17.

For the variant A18U C81A, the self-cleavage was 0.69.

Regarding U51C U67G, the self-cleavage was found to be 0.38.

On to G30A U74A, for which the self-cleavage is 0.29.

A18C U72C: the self-cleavage worked out at 0.46.

Consider U26A U72A, for which the self-cleavage was determined as 0.75.

U26A U72C: the self-cleavage stood at 1.13.

For U1C G53A, the self-cleavage is 0.98.

A2G G10U: the self-cleavage is 0.36.

As for A35C U41G, the self-cleavage amounted to 0.2.

On to U74A A75C, for which the self-cleavage worked out at 1.44.

In the case of C39A A45G, the self-cleavage came out at 0.33.

Regarding A5G G46U, the self-cleavage was 0.4.

In the case of C11A U74C, the self-cleavage came to 0.6.

For the variant C68A U69C, the self-cleavage was found to be 0.17.

In the case of G8A C14U, the self-cleavage is 0.08.

Regarding A45U U58A, the self-cleavage was 0.12.

U25A A77G: the self-cleavage was 0.18.

Take A21G U31C: the self-cleavage was determined as 0.24.

With G9U C38A, the self-cleavage turned out to be 1.09.

As to U1C A35U, the self-cleavage was 0.33.

Take G7C G30U: the self-cleavage was found to be 0.14.

With G33C A45U, the self-cleavage was found to be 0.17.

With U43A C79A, the self-cleavage is 1.22.

A35G U78G: the self-cleavage was 1.29.

U49C C71A: the self-cleavage was 0.17.

Take A3C U41G: the self-cleavage turned out to be 0.56.

A35U A47U: the self-cleavage was determined as 0.26.

U25C C40A: the self-cleavage worked out at 0.15.

For U67A U74A, the self-cleavage stood at 0.8.

On to A18C A64G, for which the self-cleavage stood at 0.38.
